From patent US20150197564A1

Biological target: hANGPTL3(17-460)-His (human) (UniProt Q9Y5C1)
Assay: Biacore cross-competition, 25C; first antibody at 25 µg/ml on captured antigen

Chain of hANGPTL3(17-460)-His (human) (Q9Y5C1 other isoform, or with tags, fused parts or gaps): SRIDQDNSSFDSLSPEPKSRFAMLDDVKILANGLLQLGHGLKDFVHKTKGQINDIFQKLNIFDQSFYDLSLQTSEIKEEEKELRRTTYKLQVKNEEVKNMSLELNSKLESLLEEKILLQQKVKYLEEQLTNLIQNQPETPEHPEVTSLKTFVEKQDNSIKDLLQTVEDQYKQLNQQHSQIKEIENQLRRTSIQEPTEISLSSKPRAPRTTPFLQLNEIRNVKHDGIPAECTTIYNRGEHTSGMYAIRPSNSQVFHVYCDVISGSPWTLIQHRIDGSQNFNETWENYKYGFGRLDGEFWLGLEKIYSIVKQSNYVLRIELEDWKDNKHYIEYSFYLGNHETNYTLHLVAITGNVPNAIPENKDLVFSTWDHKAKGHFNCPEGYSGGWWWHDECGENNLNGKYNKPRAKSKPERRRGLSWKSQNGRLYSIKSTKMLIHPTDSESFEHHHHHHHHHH

mAb1 binding response (RU): 81 RU
Substance: Negative Control (Table 8) (antibody)
